Assay results published in the supplement of paper PMC12764529.
± gives the half width of the 95% confidence interval.

Legend:
[1] = folding stability dG unfold from trypsin proteolysis; higher = more stable
Outline: (§1)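 Digests were run with trypsin and chymotrypsin at 11 concentrations in threefold dilutions, plus a no-protease condition, on designed mini-proteins in a PA-tagged cDNA display construct. The mini-proteins were under 80 residues, had no cysteine, and were kept only when AlphaFold2 dimer inter-PAE was above 15. After sequencing, Bayesian fitting of the counts gave K50, from which unfolding free energy was derived against a sequence-predicted unfolded-state K50 and a shared folded-state K50, per protease or combined.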

[2] = folding stability dG unfold (combined trypsin and chymotrypsin); higher = more stable
Outline: as §1

[3] = folding stability dG unfold from chymotrypsin proteolysis; higher = more stable
Outline: as §1

Sequence	folding stability dG unfold [1]	folding stability dG unfold [2]	folding stability dG unfold [3]
SAGGSAGGSAGGSPAVRIPLEVLKELIPPDLVVEVNPVPVPEEGGVLVPVRVVSPEEAASAGGSAGGSAGGS [r4_119_TrMRF]	0.0931 ± 0.052 kcal/mol	0.728 ± 0.18 kcal/mol	1.13 ± 0.042 kcal/mol
SAGGSAGGSAGGSPFTIKIKMEQPNGRKRTYTIEGEGDLDQIAKELEKHYPGRIKDIEISAGGSAGGSAGGS [r4_412_TrROS]	-0.101 ± 0.31 kcal/mol	0.548 ± 0.27 kcal/mol	0.783 ± 0.23 kcal/mol
SAGGSAGGSAGGSPGVGERVVPVEDGVVRVRVFPDFAVVEYENGGVETMTLDDLVRALSSAGGSAGGSAGGS [r4_242_TrMRF]	0.497 ± 0.064 kcal/mol	0.601 ± 0.14 kcal/mol	0.65 ± 0.053 kcal/mol
SAGGSAGGSAGGSPLKIKIVEVKEHKNPDGKPRRRIMMRFPNGRTLHIDMNGNLEIMPASAGGSAGGSAGGS [r4_111_TrROS]	0.0795 ± 0.19 kcal/mol	0.188 ± 0.22 kcal/mol	0.176 ± 0.32 kcal/mol
SAGGSAGGSAGGSPNIYYTSGPFALVVTLPNGTKIVIPGSNIENLKNYNLISVEVVSTDSAGGSAGGSAGGS [r4_348_TrMRF]	0.528 ± 0.065 kcal/mol	1.4 ± 0.15 kcal/mol	1.81 ± 0.1 kcal/mol
SAGGSAGGSAGGSPPMPMRIDEVEYDPPNGRYEITVEPDNGNPQTITMPPGNIDEAYIVSAGGSAGGSAGGS [r4_51_TrROS]	1.47 ± 0.12 kcal/mol	1.15 ± 0.16 kcal/mol	0.978 ± 0.042 kcal/mol
SAGGSAGGSAGGSPSPLGKTRPALPASPVLKVPVTLPDDSLLTVYYDPLTGSLVVESYSSAGGSAGGSAGGS [r4_305_TrMRF]	0.326 ± 0.026 kcal/mol	0.467 ± 0.07 kcal/mol	0.414 ± 0.12 kcal/mol
SAGGSAGGSAGGSPVEIKLKELPDGVLVAEATFTLENGETVKIKAVYDKKTKKLHFELVSAGGSAGGSAGGS [r4_13_TrROS_Hall]	2.15 ± 0.086 kcal/mol	3.09 ± 0.098 kcal/mol	3.5 ± 0.085 kcal/mol
SAGGSAGGSAGGSPYVQIRFEIPVWKFKPGGWEPVNPMPIPIWVPADDPPAAKDIAEEISAGGSAGGSAGGS [r4_153_TrROS]	0.724 ± 0.07 kcal/mol	0.849 ± 0.09 kcal/mol	0.839 ± 0.18 kcal/mol
SAGGSAGGSAGGSRTIYEPVPPDVAGTRLITFTSPDSEPLSTRTVSVTPVPGGRGAVILGSAGGSAGGSAGG [r7_64_JUSTAS]	-0.735 ± 0.44 kcal/mol	-0.599 ± 0.23 kcal/mol	-0.918 ± 0.73 kcal/mol
SAGGSAGGSAGGSSAKDILDELKGITFFHPNGRRYRITDVEIEPHGDGWVLSIEMEPYPSAGGSAGGSAGGS [r4_299_TrROS]	2.05 ± 0.057 kcal/mol	2.7 ± 0.059 kcal/mol	3.05 ± 0.034 kcal/mol
SAGGSAGGSAGGSSGTSVSTEVSSSPVVTKTEYTKLDDGWSTTTTVVSTLPNALAPELTTSAGGSAGGSAGG [r7_845_JUSTAS]	1.06 ± 0.082 kcal/mol	0.727 ± 0.079 kcal/mol	0.255 ± 0.024 kcal/mol
SAGGSAGGSAGGSSIEELRRSPEVEVEVSTEKLPNGKTVTTVTLTPPDGVPTTIVLPEGSAGGSAGGSAGGS [r4_70_JUSTAS]	0.266 ± 0.075 kcal/mol	0.978 ± 0.14 kcal/mol	1.17 ± 0.041 kcal/mol
SAGGSAGGSAGGSSITIEEEGGKLRITVTNENGEKSEFEFPPGAKITLPEGVKLELEKESAGGSAGGSAGGS [r4_447_TrROS_Hall]	0.549 ± 0.082 kcal/mol	0.84 ± 0.073 kcal/mol	1.13 ± 0.019 kcal/mol
SAGGSAGGSAGGSSLYVPGKGYIVERDEAKGYLVIKPIEPDGIVPDAEVFYKPPSVPLISAGGSAGGSAGGS [r4_409_JUSTAS]	-0.879 ± 0.22 kcal/mol	-0.271 ± 0.19 kcal/mol	-0.102 ± 0.43 kcal/mol
SAGGSAGGSAGGSSMTIEEQKEKIKKEVPLGKSVTIEYPDKTVTLTIDPKSGKITVTISSAGGSAGGSAGGS [r4_150_JUSTAS]	0.61 ± 0.079 kcal/mol	1.17 ± 0.12 kcal/mol	1.44 ± 0.021 kcal/mol
SAGGSAGGSAGGSSMTLVTEETELPSPLRKVTKYTIDPKNPGKITSETTWYDPEGKPLGSAGGSAGGSAGGS [r4_297_JUSTAS]	-0.441 ± 0.33 kcal/mol	0.0774 ± 0.17 kcal/mol	0.362 ± 0.17 kcal/mol
SAGGSAGGSAGGSSMVFELDGVRIVVTEDEVVFYPPETGKPVVLPMSNPEVQELIKELVSAGGSAGGSAGGS [r4_353_TrMRF]	1.87 ± 0.054 kcal/mol	1.82 ± 0.083 kcal/mol	1.78 ± 0.039 kcal/mol
SAGGSAGGSAGGSSTILIPSSTSEEYAESLAKELKKKGNVKTSFDPSTGVLVLTLPGGSSSAGGSAGGSAGG [r7_219_JUSTAS]	-0.962 ± 0.59 kcal/mol	-0.17 ± 0.21 kcal/mol	0.0516 ± 0.2 kcal/mol
SAGGSAGGSAGGSTGITSTFFDPKTGTVTTTTLVPSTGTTTTTVTPVTIPGPAATTTLTSAGGSAGGSAGGS [r10_331_JUSTAS]	1.31 ± 0.067 kcal/mol	0.888 ± 0.045 kcal/mol	0.55 ± 0.052 kcal/mol
SAGGSAGGSAGGSTITISPEQPVEGLTIELDGKTIKVVSYTPEPKEGEPLLKVTVERLDSAGGSAGGSAGGS [r10_1098_JUSTAS]	-1.28 ± 0.86 kcal/mol	-0.771 ± 0.81 kcal/mol	-0.489 ± 0.33 kcal/mol

Sequence	folding stability dG unfold [1]	folding stability dG unfold [2]	folding stability dG unfold [3]
SAGGSAGGSAGGSTLQSNASGIFTLYLAGSNLTVTLSKAELPKIPADFPIPSSATFTAGSAGGSAGGSAGGS [r4_91_JUSTAS]	0.215 ± 0.16 kcal/mol	-0.196 ± 0.41 kcal/mol	-0.41 ± 0.51 kcal/mol
SAGGSAGGSAGGSTPTPDGSPVEITLPDGTVVTFDPATNSITIATRTPDSVSTTPIPAAASAGGSAGGSAGG [r7_527_JUSTAS]	1.34 ± 0.031 kcal/mol	1.2 ± 0.035 kcal/mol	1.08 ± 0.037 kcal/mol
SAGGSAGGSAGGSVPSDVTVSILEIEPKEDKYLVLLRVPENGTLIEREFESLEEAKELLSAGGSAGGSAGGS [r10_1038_JUSTAS]	1.16 ± 0.033 kcal/mol	0.645 ± 0.088 kcal/mol	-0.51 ± 0.21 kcal/mol
SAGGSAGGSAGGSVTVERYPDGKVTTTTTDPTRPVTTVTLAEVEPGPGKVLTETVTPVPSAGGSAGGSAGGS [r10_613_JUSTAS]	0.835 ± 0.057 kcal/mol	1.12 ± 0.1 kcal/mol	1.3 ± 0.14 kcal/mol
SAGGSAGGSAGGSVVPTTSYSPDGTLTLTTETVTPSSNGLTVTSSTTVRPLPTPASPAASAGGSAGGSAGGS [r10_1200_JUSTAS]	1.35 ± 0.18 kcal/mol	1.04 ± 0.11 kcal/mol	1.01 ± 0.039 kcal/mol
SAGGSAGGSAGGSVVTRLPNGSYRYTVTRVSFDPKTGTWSSETTVLTVPPDRPVEIPPGSAGGSAGGSAGGS [r4_48_JUSTAS]	1.14 ± 0.049 kcal/mol	1.89 ± 0.096 kcal/mol	2.26 ± 0.11 kcal/mol
SAGGSAGGSAGGSVWIMIPLEEIKDLLPPGWTVEVEPQPMPNNGYIMVPVEIVPPDNAKSAGGSAGGSAGGS [r4_119_TrROS]	0.0715 ± 0.047 kcal/mol	0.552 ± 0.16 kcal/mol	0.861 ± 0.13 kcal/mol
SAGGSAGGSAGGSWTVTKEISREGDKVYISTVTTYVNPNGTPVTETETKEISPEEVAELESAGGSAGGSAGG [r11_690_JUSTAS]	0.964 ± 0.037 kcal/mol	1.11 ± 0.11 kcal/mol	1.11 ± 0.14 kcal/mol
SAGGSAGGSAGGVAVPKEGIEEFISQLPPDTVVTLYDPETGKDIKVTVSNGKVTISPEGSAGGSAGGSAGGS [r10_137_JUSTAS]	1.29 ± 0.12 kcal/mol	1.17 ± 0.12 kcal/mol	1.02 ± 0.12 kcal/mol
SAGGSAGGSAGGVEELKKALEKAGFKVVKVEVTEVKNPETKETTTKITVTLEDGSKLTITSAGGSAGGSAGG [r7_337_TrROS_Hall]	3.95 ± 0.2 kcal/mol	3.72 ± 0.11 kcal/mol	3.63 ± 0.058 kcal/mol
SAGGSAGGSAGGVIKTFTSPDNKKYTVTVNKDGSVTVETFDPETGKKSISTVSAAEASLSAGGSAGGSAGGS [r10_838_JUSTAS]	1.32 ± 0.029 kcal/mol	1.18 ± 0.063 kcal/mol	0.828 ± 0.066 kcal/mol
SAGGSAGGSAGGVKEFDALAGGVPVKVKVYPDPDGNPRVEVIFPDGSKVTLSADEPLNLSAGGSAGGSAGGS [r10_989_TrMRF]	2.26 ± 0.067 kcal/mol	1.87 ± 0.068 kcal/mol	1.58 ± 0.08 kcal/mol
SAGGSAGGSAGGVKKGDKVTVLRVRLELKIKVEKTEDGSLKLTAELKLEISLVTVTAPDSAGGSAGGSAGGS [r10_297_TrROS_Hall]	3.53 ± 0.14 kcal/mol	5.06 ± 0.21 kcal/mol	5.2 ± 0.15 kcal/mol
SAGGSAGGSAGGVKPGQKVKVEIDGKTYEATVDEKNGTIYVTLPNGKKYKAKIVKVEKVSAGGSAGGSAGGS [r10_1185_TrROS_Hall]	1.79 ± 0.18 kcal/mol	2.38 ± 0.12 kcal/mol	2.64 ± 0.05 kcal/mol
SAGGSAGGSAGGVPPESVLLSEEKVGGKTVEIVRDPATGKLYRVTKVPGSDSIEVEELGLSAGGSAGGSAGG [r7_179_JUSTAS]	2.2 ± 0.093 kcal/mol	2.43 ± 0.092 kcal/mol	2.549 ± 0.013 kcal/mol
SAGGSAGGSAGGVTIVIGTDKDIPAEVIEKEVADELLKAGIPPDVKVNVVVVPIDPDALSAGGSAGGSAGGS [r10_746_TrMRF]	1.1 ± 0.042 kcal/mol	1.11 ± 0.1 kcal/mol	1.17 ± 0.087 kcal/mol
SAGGSAGGSAGGWIRSPGGWWVNIDIEIFEIPIDKNMSPEMANKFKRVRIIVIEITVVKRSAGGSAGGSAGG [r7_324_TrROS]	3.31 ± 0.16 kcal/mol	3.84 ± 0.25 kcal/mol	4.7 ± 0.15 kcal/mol
SAGGSAGGSAGGWRTVWIRMPPGQSPEQAVDEIKDHFPPGEPIEVEYHPNDGFFRVKIPSAGGSAGGSAGGS [r10_163_TrROS]	0.654 ± 0.08 kcal/mol	0.668 ± 0.077 kcal/mol	0.546 ± 0.22 kcal/mol
SAGGSAGGSAGGWYVQIKFPNNPIYISAEEIRDNPEVLKELEDEGYPIKNIEVMKPGEGSAGGSAGGSAGGS [r10_396_TrROS]	0.526 ± 0.082 kcal/mol	0.241 ± 0.14 kcal/mol	-0.5 ± 0.29 kcal/mol
SAGGSAGGSAGGYSAIIIFPTEFDNKLYYAAVELESPSEELHEGDIKSVILAPLNTPILSAGGSAGGSAGGS [r10_730_TrMRF]	1.93 ± 0.096 kcal/mol	1.64 ± 0.046 kcal/mol	1.41 ± 0.043 kcal/mol
SAGGSAGGSAGIEAVVKELEELGYEVEATPEPDGSVVIEVTLKNGEKLTVRVGPFGGVEASAGGSAGGSAGG [r17_503_TrMRF]	2.21 ± 0.14 kcal/mol	2.24 ± 0.13 kcal/mol	2.2 ± 0.071 kcal/mol
